Data reported in paper PMC8276117.

Target: eHSP90α-His6 (secreted from HEK293) (human) (UniProt P07900)
Assay: native gel or EMSA

Substance: eHSP90α-His6 (secreted from HEK293) (from UniProt P07900 1-732) (natural protein)
- stoichiometry N: 2
